Data taken from publication PMC2189805.

Target: SETα (human (endogenous in HeLa)) (UniProt Q01105)
Test: co-IP

UniProt Q01105, sequence (Q01105 2-290): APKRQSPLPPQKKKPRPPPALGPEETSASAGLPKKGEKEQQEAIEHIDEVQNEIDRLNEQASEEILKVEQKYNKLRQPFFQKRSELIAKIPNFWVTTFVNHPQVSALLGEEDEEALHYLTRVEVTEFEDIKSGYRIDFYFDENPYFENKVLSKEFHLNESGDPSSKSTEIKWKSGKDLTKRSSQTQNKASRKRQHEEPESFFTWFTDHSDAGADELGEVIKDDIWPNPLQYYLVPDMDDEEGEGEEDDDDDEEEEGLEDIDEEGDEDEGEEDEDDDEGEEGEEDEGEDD

HuR (endogenous) (from UniProt Q15717 1-326) (natural protein)
percent of total cellular HuR bound: 5%
